This note sets out measurements from paper PMC10773802, “Electrochemical aptasensor fabricated by anchoring recognition aptamers and immobilizing redox probes on bipolar silica nanochannel array for reagentless detection of carbohydrate antigen 15-3”.

This data set has as its target carbohydrate antigen 15-3 (CA15-3) (UniProt P15941 24-1097). Description: electrochemical aptasensor (DPV, CV, EIS); aptamer immobilized on bp-SNA/ITO with Co(bpy)3 2+ probe, BSA-blocked; linear 0.001-500 U/mL, LOD 0.13 mU/mL (not a Kd); 0.01 M PBS (sodium phosphate), pH 7.4; CA15-3 incubation 80 min at 4 °C; BSA-blocked electrode (0.1 wt%). Conditions: protein: commercial.

carbohydrate antigen 15-3 (CA15-3), sequence (P15941 24-1097): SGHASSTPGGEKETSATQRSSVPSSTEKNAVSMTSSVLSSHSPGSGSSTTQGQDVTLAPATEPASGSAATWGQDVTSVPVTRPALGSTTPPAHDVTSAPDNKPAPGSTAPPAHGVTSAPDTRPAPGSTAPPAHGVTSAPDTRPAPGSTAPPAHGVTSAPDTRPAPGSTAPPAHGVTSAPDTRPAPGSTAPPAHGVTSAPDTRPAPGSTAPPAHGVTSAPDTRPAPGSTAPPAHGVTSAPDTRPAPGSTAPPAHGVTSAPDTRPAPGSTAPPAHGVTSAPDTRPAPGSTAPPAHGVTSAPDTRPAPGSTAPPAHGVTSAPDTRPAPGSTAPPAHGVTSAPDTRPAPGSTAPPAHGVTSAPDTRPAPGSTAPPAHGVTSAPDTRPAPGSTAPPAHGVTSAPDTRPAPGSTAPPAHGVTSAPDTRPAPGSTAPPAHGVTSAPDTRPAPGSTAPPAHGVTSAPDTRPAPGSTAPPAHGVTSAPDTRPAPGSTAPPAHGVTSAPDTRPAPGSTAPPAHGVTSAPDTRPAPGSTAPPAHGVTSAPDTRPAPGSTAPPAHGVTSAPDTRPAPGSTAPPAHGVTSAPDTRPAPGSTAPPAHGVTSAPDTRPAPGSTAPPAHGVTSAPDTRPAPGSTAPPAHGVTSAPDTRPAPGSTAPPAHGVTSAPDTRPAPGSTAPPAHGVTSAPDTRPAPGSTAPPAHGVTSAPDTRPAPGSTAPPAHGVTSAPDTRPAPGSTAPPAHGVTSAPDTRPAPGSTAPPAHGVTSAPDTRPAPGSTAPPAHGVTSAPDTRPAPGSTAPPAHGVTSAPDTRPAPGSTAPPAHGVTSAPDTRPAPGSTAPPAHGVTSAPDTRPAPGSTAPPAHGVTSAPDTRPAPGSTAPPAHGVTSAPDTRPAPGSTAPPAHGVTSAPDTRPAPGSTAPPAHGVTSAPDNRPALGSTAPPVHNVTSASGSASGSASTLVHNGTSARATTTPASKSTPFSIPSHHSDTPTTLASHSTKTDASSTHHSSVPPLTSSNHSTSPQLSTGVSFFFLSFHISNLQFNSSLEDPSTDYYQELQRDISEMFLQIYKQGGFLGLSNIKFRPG

B1: CA15-3 aptamer (amino-modified) (ssDNA)
DNA: CTTCCTCCCTGAAGTGAATATGACAGATCACAACTTCCCTCCTTC
modifications: 5'-NH2
As for B1, the binding result is “binds”.
